Test results: patent US20200199204A1

How the values were obtained:
Assay in all cases: cell-based or functional assay
[1] = target: HIV-1 Env of 6405.v4.c34 (HIV-1)
[2] = target: HIV-1 Env of CM244.ec1 (HIV-1)
[3] = target: HIV-1 Env of SC422.8 (HIV-1)
[4] = target: HIV-1 Env of CAP210.E8 (HIV-1)
[5] = target: HIV-1 Env of Q842.d12 (HIV-1)
[6] = target: HIV-1 Env of 191821.E6.1 (HIV-1)
[7] = target: HIV-1 Env of ZM109.4 (HIV-1)
[8] = target: HIV-1 Env of KER2008.12 (HIV-1)
[9] = target: HIV-1 Env of MB539.2B7 (HIV-1)
[10] = target: HIV-1 Env of ZM135.10a (HIV-1)
[11] = target: HIV-1 Env of TH976.17 (HIV-1)
[12] = target: HIV-1 Env of 6535.3 (HIV-1)
[13] = target: HIV-1 Env of DU422.01 (HIV-1)
[14] = target: HIV-1 Env of THRO.18 (HIV-1)
[15] = target: HIV-1 Env of TRO.11 (HIV-1)
[16] = target: HIV-1 Env of Q259.d2.17 (HIV-1)
[17] = target: HIV-1 Env of Q461.e2 (HIV-1)
[18] = target: HIV-1 Env of Q23.17 (HIV-1)
[19] = target: HIV-1 Env of ZM249.1 (HIV-1)
[20] = target: HIV-1 Env of PVO.04 (HIV-1)
[21] = target: HIV-1 Env of ZM214.15 (HIV-1)
[22] = target: HIV-1 Env of CAP256.SU (HIV-1)
[23] = target: HIV-1 Env of UG037.8 (HIV-1)
[24] = target: HIV-1 Env of KER2018.11 (HIV-1)
[25] = target: HIV-1 Env of CAP256.PI (HIV-1)
[26] = target: HIV-1 Env of 3016.V5.c36 (HIV-1)
[27] = target: HIV-1 Env of RW020.2 (HIV-1)
[28] = target: HIV-1 Env of ZM233.6 (HIV-1)
[29] = target: HIV-1 Env of CAAN.A2 (HIV-1)
[30] = target: HIV-1 Env of CNE3 (HIV-1)
[31] = target: HIV-1 Env of AC10.29 (HIV-1)
[32] = target: HIV-1 Env of CAP244.D3 (HIV-1)
[33] = target: HIV-1 Env of 96ZM651.02 (HIV-1)
[34] = target: HIV-1 Env of ZM53.12 (HIV-1)
[35] = target: HIV-1 Env of MB201 (HIV-1)
[36] = target: HIV-1 Env of ZM197.7 (HIV-1)
[37] = target: HIV-1 Env of Q769.d22 (HIV-1)
[38] = target: HIV-1 Env of C1080.c3 (HIV-1)
[39] = target: HIV-1 Env of RHPA.7 (HIV-1)
[40] = target: HIV-1 Env of QH0692.42 (HIV-1)
[41] = target: HIV-1 Env of CAP45.G3 (HIV-1)
[42] = target: HIV-1 Env of TRJO.58 (HIV-1)
[43] = target: HIV-1 Env of Q168.a2 (HIV-1)
[44] = target: HIV-1 Env of 0260.v5.c36 (HIV-1)
[45] = target: HIV-1 Env of WITO.33 (HIV-1)
[46] = target: HIV-1 Env of REJO.67 (HIV-1)
[47] = target: HIV-1 Env of DU156.12 (HIV-1)
[48] = target: HIV-1 Env of BG505.w6m (HIV-1)
[49] = target: HIV-1 Env of DU172.17 (HIV-1)

Substance: CAP256-VRC26.13 (antibody)
- IC50 [1]: > 50 µg/mL
- IC50 [2]: > 50 µg/mL
- IC50 [3]: > 50 µg/mL
- IC50 [4]: 0.094 µg/mL
- IC50 [5]: > 50 µg/mL
- IC50 [6]: > 50 µg/mL
- IC50 [7]: > 50 µg/mL
- IC50 [8]: > 50 µg/mL
- IC50 [9]: > 50 µg/mL
- IC50 [10]: > 50 µg/mL
- IC50 [11]: > 50 µg/mL
- IC50 [12]: > 50 µg/mL
- IC50 [13]: > 50 µg/mL
- IC50 [14]: > 50 µg/mL
- IC50 [15]: > 50 µg/mL
- IC50 [16]: > 50 µg/mL
- IC50 [17]: > 50 µg/mL
- IC50 [18]: > 50 µg/mL
- IC50 [19]: > 50 µg/mL
- IC50 [20]: > 50 µg/mL
- IC50 [21]: > 50 µg/mL
- IC50 [22]: 0.019 µg/mL
- IC50 [23]: > 50 µg/mL
- IC50 [24]: > 50 µg/mL
- IC50 [25]: > 50 µg/mL
- IC50 [26]: 3.74 µg/mL
- IC50 [27]: > 50 µg/mL
- IC50 [28]: > 50 µg/mL
- IC50 [29]: > 50 µg/mL
- IC50 [30]: > 50 µg/mL
- IC50 [31]: > 50 µg/mL
- IC50 [32]: > 50 µg/mL
- IC50 [33]: > 50 µg/mL
- IC50 [34]: 0.039 µg/mL
- IC50 [35]: > 50 µg/mL
- IC50 [36]: > 50 µg/mL
- IC50 [37]: > 50 µg/mL
- IC50 [38]: > 50 µg/mL
- IC50 [39]: > 50 µg/mL
- IC50 [40]: > 50 µg/mL
- IC50 [41]: > 50 µg/mL
- IC50 [42]: > 50 µg/mL
- IC50 [43]: > 50 µg/mL
- IC50 [44]: > 50 µg/mL
- IC50 [45]: > 50 µg/mL
- IC50 [46]: > 50 µg/mL
- IC50 [47]: > 50 µg/mL
- IC50 [48]: > 50 µg/mL
- IC50 [49]: > 50 µg/mL

Substance: CAP256-VRC26.32 (antibody)
- IC50 (neutralization, TZM-bl) [1]: > 50 µg/mL
- IC50 (neutralization, TZM-bl) [2]: 0.561 µg/mL
- IC50 (neutralization, TZM-bl) [3]: > 50 µg/mL
- IC50 (neutralization, TZM-bl) [4]: 0.008 µg/mL
- IC50 (neutralization, TZM-bl) [5]: > 50 µg/mL
- IC50 (neutralization, TZM-bl) [7]: > 50 µg/mL
- IC50 (neutralization, TZM-bl) [8]: > 50 µg/mL
- IC50 (neutralization, TZM-bl) [9]: > 50 µg/mL
- IC50 (neutralization, TZM-bl) [10]: > 50 µg/mL
- IC50 (neutralization, TZM-bl) [11]: > 50 µg/mL
- IC50 (neutralization, TZM-bl) [12]: > 50 µg/mL
- IC50 (neutralization, TZM-bl) [13]: > 50 µg/mL
- IC50 (neutralization, TZM-bl) [14]: > 50 µg/mL
- IC50 (neutralization, TZM-bl) [15]: > 50 µg/mL
- IC50 (neutralization, TZM-bl) [16]: > 50 µg/mL
- IC50 (neutralization, TZM-bl) [17]: > 50 µg/mL
- IC50 (neutralization, TZM-bl) [18]: > 50 µg/mL
- IC50 (neutralization, TZM-bl) [19]: 16.8 µg/mL
- IC50 (neutralization, TZM-bl) [20]: 17.8 µg/mL
- IC50 (neutralization, TZM-bl) [21]: > 50 µg/mL
- IC50 (neutralization, TZM-bl) [22]: 0.004 µg/mL
- IC50 (neutralization, TZM-bl) [23]: > 50 µg/mL
- IC50 (neutralization, TZM-bl) [24]: 0.032 µg/mL
- IC50 (neutralization, TZM-bl) [25]: > 50 µg/mL
- IC50 (neutralization, TZM-bl) [26]: 0.284 µg/mL
- IC50 (neutralization, TZM-bl) [27]: > 50 µg/mL
- IC50 (neutralization, TZM-bl) [28]: 0.015 µg/mL
- IC50 (neutralization, TZM-bl) [29]: > 50 µg/mL
- IC50 (neutralization, TZM-bl) [30]: > 50 µg/mL
- IC50 (neutralization, TZM-bl) [31]: > 50 µg/mL
- IC50 (neutralization, TZM-bl) [32]: > 50 µg/mL
- IC50 (neutralization, TZM-bl) [33]: > 50 µg/mL
- IC50 (neutralization, TZM-bl) [34]: 0.011 µg/mL
- IC50 (neutralization, TZM-bl) [35]: > 50 µg/mL
- IC50 (neutralization, TZM-bl) [36]: 0.097 µg/mL
- IC50 (neutralization, TZM-bl) [37]: > 50 µg/mL
- IC50 (neutralization, TZM-bl) [38]: > 50 µg/mL
- IC50 (neutralization, TZM-bl) [39]: > 50 µg/mL
- IC50 (neutralization, TZM-bl) [40]: > 50 µg/mL
- IC50 (neutralization, TZM-bl) [41]: > 50 µg/mL
- IC50 (neutralization, TZM-bl) [42]: > 50 µg/mL
- IC50 (neutralization, TZM-bl) [43]: > 50 µg/mL
- IC50 (neutralization, TZM-bl) [44]: > 50 µg/mL
- IC50 (neutralization, TZM-bl) [45]: > 50 µg/mL
- IC50 (neutralization, TZM-bl) [46]: > 50 µg/mL
- IC50 (neutralization, TZM-bl) [47]: > 50 µg/mL
- IC50 (neutralization, TZM-bl) [48]: > 50 µg/mL
- IC50 (neutralization, TZM-bl) [49]: > 50 µg/mL

Substance: CAP256-VRC26.33 (antibody)
- IC50 (neutralization, TZM-bl) [1]: > 50 µg/mL
- IC50 (neutralization, TZM-bl) [2]: 0.036 µg/mL
- IC50 (neutralization, TZM-bl) [3]: > 50 µg/mL
- IC50 (neutralization, TZM-bl) [4]: 0.017 µg/mL
- IC50 (neutralization, TZM-bl) [5]: > 50 µg/mL
- IC50 (neutralization, TZM-bl) [7]: > 50 µg/mL
- IC50 (neutralization, TZM-bl) [8]: > 50 µg/mL
- IC50 (neutralization, TZM-bl) [9]: > 50 µg/mL
- IC50 (neutralization, TZM-bl) [10]: > 50 µg/mL
- IC50 (neutralization, TZM-bl) [11]: > 50 µg/mL
- IC50 (neutralization, TZM-bl) [12]: > 50 µg/mL
- IC50 (neutralization, TZM-bl) [13]: 29.5 µg/mL
- IC50 (neutralization, TZM-bl) [14]: > 50 µg/mL
- IC50 (neutralization, TZM-bl) [15]: > 50 µg/mL
- IC50 (neutralization, TZM-bl) [16]: > 50 µg/mL
- IC50 (neutralization, TZM-bl) [17]: > 50 µg/mL
- IC50 (neutralization, TZM-bl) [18]: > 50 µg/mL
- IC50 (neutralization, TZM-bl) [19]: 22.5 µg/mL
- IC50 (neutralization, TZM-bl) [20]: > 50 µg/mL
- IC50 (neutralization, TZM-bl) [21]: > 50 µg/mL
- IC50 (neutralization, TZM-bl) [22]: 0.007 µg/mL
- IC50 (neutralization, TZM-bl) [23]: > 50 µg/mL
- IC50 (neutralization, TZM-bl) [24]: 0.037 µg/mL
- IC50 (neutralization, TZM-bl) [25]: > 50 µg/mL
- IC50 (neutralization, TZM-bl) [26]: 0.506 µg/mL
- IC50 (neutralization, TZM-bl) [27]: > 50 µg/mL
- IC50 (neutralization, TZM-bl) [28]: 0.004 µg/mL
- IC50 (neutralization, TZM-bl) [29]: > 50 µg/mL
- IC50 (neutralization, TZM-bl) [30]: > 50 µg/mL
- IC50 (neutralization, TZM-bl) [31]: > 50 µg/mL
- IC50 (neutralization, TZM-bl) [32]: > 50 µg/mL
- IC50 (neutralization, TZM-bl) [33]: > 50 µg/mL
- IC50 (neutralization, TZM-bl) [34]: 0.015 µg/mL
- IC50 (neutralization, TZM-bl) [35]: > 50 µg/mL
- IC50 (neutralization, TZM-bl) [36]: 1.73 µg/mL
- IC50 (neutralization, TZM-bl) [37]: > 50 µg/mL
- IC50 (neutralization, TZM-bl) [38]: > 50 µg/mL
- IC50 (neutralization, TZM-bl) [39]: > 50 µg/mL
- IC50 (neutralization, TZM-bl) [40]: > 50 µg/mL
- IC50 (neutralization, TZM-bl) [41]: 0.622 µg/mL
- IC50 (neutralization, TZM-bl) [42]: > 50 µg/mL
- IC50 (neutralization, TZM-bl) [43]: > 50 µg/mL
- IC50 (neutralization, TZM-bl) [44]: > 50 µg/mL
- IC50 (neutralization, TZM-bl) [45]: > 50 µg/mL
- IC50 (neutralization, TZM-bl) [46]: > 50 µg/mL
- IC50 (neutralization, TZM-bl) [47]: > 50 µg/mL
- IC50 (neutralization, TZM-bl) [48]: > 50 µg/mL
- IC50 (neutralization, TZM-bl) [49]: > 50 µg/mL
